Molecular target: git1_human GIT1 (UniProt Q9Y2X7)
Sequence (Q9Y2X7 whole entry): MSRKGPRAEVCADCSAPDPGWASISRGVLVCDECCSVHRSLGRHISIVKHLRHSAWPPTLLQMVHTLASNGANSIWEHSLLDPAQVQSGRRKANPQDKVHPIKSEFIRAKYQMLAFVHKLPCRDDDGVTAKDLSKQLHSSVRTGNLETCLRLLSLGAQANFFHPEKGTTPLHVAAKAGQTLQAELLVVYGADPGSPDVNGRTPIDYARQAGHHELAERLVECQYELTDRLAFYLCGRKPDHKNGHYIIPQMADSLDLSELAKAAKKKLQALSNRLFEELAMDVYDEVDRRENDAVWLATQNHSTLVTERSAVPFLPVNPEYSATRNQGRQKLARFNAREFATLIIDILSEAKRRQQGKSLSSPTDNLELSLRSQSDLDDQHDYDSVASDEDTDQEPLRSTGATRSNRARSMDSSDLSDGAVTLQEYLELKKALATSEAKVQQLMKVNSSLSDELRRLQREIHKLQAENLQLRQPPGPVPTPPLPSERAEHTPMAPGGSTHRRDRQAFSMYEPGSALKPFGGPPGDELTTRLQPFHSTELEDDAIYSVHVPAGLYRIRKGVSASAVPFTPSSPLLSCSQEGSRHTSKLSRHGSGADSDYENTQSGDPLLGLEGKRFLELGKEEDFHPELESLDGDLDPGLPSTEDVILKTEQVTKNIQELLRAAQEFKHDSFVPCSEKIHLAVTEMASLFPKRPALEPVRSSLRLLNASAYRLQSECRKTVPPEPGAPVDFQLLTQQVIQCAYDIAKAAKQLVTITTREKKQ

Paxillin (Gallus gallus (Chicken)), P49024 S273A, sequence (P49024 whole entry S273A): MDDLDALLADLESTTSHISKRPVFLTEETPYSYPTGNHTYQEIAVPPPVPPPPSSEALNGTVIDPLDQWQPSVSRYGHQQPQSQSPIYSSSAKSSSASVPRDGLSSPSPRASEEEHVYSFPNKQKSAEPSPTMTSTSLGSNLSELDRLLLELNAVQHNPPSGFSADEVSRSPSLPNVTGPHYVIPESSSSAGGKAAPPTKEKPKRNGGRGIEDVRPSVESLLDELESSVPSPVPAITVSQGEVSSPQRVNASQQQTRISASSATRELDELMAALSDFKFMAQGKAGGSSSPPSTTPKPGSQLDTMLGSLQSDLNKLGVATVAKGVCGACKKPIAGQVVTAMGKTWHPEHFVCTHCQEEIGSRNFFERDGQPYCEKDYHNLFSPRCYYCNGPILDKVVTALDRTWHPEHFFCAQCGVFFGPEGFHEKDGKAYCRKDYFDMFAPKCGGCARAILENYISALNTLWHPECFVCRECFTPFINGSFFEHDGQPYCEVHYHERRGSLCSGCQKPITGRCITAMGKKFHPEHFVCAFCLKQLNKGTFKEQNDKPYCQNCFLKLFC
Paxillin (Gallus gallus (Chicken)), P49024 S273D, sequence (P49024 whole entry S273D): as the sequence (P49024 whole entry S273A) above, with A273D counted along it

Row | effect of a mutation on the interaction | Substance
1 | decreasing interaction | Paxillin (Gallus gallus (Chicken)), P49024 S273A
2 | increasing interaction | Paxillin (Gallus gallus (Chicken)), P49024 S273D
